Experimental findings from patent US20080105961A1, “Ligands of the Molecule Fit (Agt-121) and their Pharmaceutical Use” (priority 2004, published 2008) are described below.

The target in assay [1] is T1, FIT-NP (FIT N-terminal plus proline-rich region) (Homo sapiens, UniProt Q9BQI5).
T1 construct: expressed in transfected cells
T1 sequence (Q9BQI5 with tags, fused parts or gaps I33M/P40L/N43H/V56A/I186T/P191L/T195L/E211G/Q212H/I230V/T240A/N255T/I269V/G270A/P271T/S276A/V280A/L285P/N289S/A308T/K311T/T318A/S335T/T339A/P340S/N342I/A348T/L352P/P357S/T358A/DEL367-367/L371P/I397L/D402E/F403C/A409E/P432S/P434T/T437A/R454S/S455C/T456S): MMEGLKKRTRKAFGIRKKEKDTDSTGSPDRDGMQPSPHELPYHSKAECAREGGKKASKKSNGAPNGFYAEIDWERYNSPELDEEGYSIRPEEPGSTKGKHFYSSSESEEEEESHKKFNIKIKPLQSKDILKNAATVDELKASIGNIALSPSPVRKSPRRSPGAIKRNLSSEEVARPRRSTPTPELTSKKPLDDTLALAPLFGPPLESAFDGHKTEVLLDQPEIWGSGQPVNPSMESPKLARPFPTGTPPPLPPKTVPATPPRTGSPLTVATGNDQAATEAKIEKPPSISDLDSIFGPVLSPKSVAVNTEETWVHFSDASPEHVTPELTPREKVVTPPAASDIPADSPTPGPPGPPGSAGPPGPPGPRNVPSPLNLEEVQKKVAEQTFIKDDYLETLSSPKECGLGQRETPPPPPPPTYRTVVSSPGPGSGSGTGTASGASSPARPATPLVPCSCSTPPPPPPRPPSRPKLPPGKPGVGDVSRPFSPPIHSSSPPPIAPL
As to the kind of experiment: Yeast two-hybrid screen of human brain cDNA library, bait FIT-NP. Type of assay: binding. To be noted: for Number of clones: bait FIT-NP, human brain cDNA library, clones listed highest to lowest interacting strength; for strength of interaction with FIT: in yeast. The text has this:
(§1) In order to perform these experiments, two truncated fragments of FIT were constructed to be used as baits in a yeast two-hybrid screen of a human brain cDNA library: one bait consisting of the N-terminal region plus the central proline-rich region, and the other bait consisting of the central proline-rich region alone. The inventors utilised a yeast two-hybrid system which incorporates modifications by Chevray and Nathans (1992), and Vidal et al. (1996) to screen a human brain cDNA library. FIT fragments were PCR amplified, purified and then cloned into an appropriate vector. Sense oligonucleotides for FIT-NP (5′-[…]-3′: SEQ ID NO:72), and FIT-PR (5′-[…]-3′: SEQ ID NO:73), with Sal1 restriction enzyme sites underlined, were used in conjunction with a common antisense oligonucleotide (5′-[…]-3′: SEQ ID NO:74), with the Not1 restriction enzyme site underlined.
(§2) Human brain cDNA inserts were prepared and cloned into the expression vector according to manufacturer's instructions.

A further assay deals with melanocortin receptor. As to the kind of experiment: Feeding response to ICV injection of SHU9119 after three days of ODN or saline infusion. To be noted: mean ± SEM. Type of assay: in vivo, Sprague Dawley rats. The text has this: To further analyse the link between FIT and the melanocortin system, the feeding response of Sprague Dawley rats to an ICV injection of SHU9119, a melanocortin receptor antagonist and known feeding stimulator was investigated. After three days of FIT antisense treatment, jumbled oligonucleotide or saline infusion, responses were compared to rats receiving an ICV injection of saline vehicle rather than SHU9119.

The target of assay [2] is T2, FIT-PR (FIT proline-rich region) (Homo sapiens, UniProt Q9BQI5).
T2 construct: expressed in transfected cells
T2 sequence (Q9BQI5 with tags, fused parts or gaps N255T/I269V/G270A/P271T/S276A/V280A/L285P/N289S/A308T/K311T/T318A/S335T/T339A/P340S/N342I/A348T/L352P/P357S/T358A/DEL367-367/L371P/I397L/D402E/F403C/P432S/P434T/T437A/R454S/S455C/T456S): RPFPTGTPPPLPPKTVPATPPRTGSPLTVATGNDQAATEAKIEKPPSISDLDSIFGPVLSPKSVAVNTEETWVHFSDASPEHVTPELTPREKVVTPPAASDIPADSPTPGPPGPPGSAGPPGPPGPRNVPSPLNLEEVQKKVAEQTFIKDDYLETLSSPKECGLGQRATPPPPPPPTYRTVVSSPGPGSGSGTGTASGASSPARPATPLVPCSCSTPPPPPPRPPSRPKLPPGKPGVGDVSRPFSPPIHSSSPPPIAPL
In words: Yeast two-hybrid screen of human brain cDNA library, bait FIT-PR. Type of assay: binding. To be noted: clones listed highest to lowest interacting strength.
Excerpt: as §1, with “To investigate the mechanism by which FIT regulates energy balance, neural proteins that interact with FIT were identified. In” for “In”
as §2

Marks after values point to notes of the source that are not given here.

Take “MAD2: FIT interacting protein isolated from a human brain cDNA library”: the Number of clones in assay [1] is recorded as 1.

For the molecule SHU9119, the “Δ FI” value with melanocortin receptor (48 hr food intake post minus pre injection) is reported as 0.02 ± 0.01 g/g BW. The “48 hr FI post injection” value with melanocortin receptor (food intake relative to body weight, after ICV SHU9119 or vehicle injection) was 0.16 ± 0.01^a g/g BW. Moreover, the “48 hr FI pre injection” value in the assay on melanocortin receptor (food intake relative to body weight, during ICV infusion, before SHU9119 or vehicle injection) came to 0.14 ± 0.01 g/g BW.

On to “β-arrestin 1: FIT interacting protein isolated from a human brain cDNA library”, for which, in assay [1], the Number of clones is 1 and the “strength of interaction with FIT” value is “slightly lesser strength”.

B1: RNA-binding protein EWS: FIT interacting protein isolated from a human brain cDNA library (protein)
chain: MASTDYSTYSQAAAQQGYSAYTAQPTQGYAQTTQAYGQQSYGTYGQPTDVSYTQAQTTATYGQTAYATSYGQPPTGYTTPTAPQAYSQPVQGYGTGAYDTTTATVTTTQASYAAQSAYGTQPAYPAYGQQPAATAPTRPQDGNKPTETSQPQSSTGGYNQPSLGYGQSNYSYPQVPGSYPMQPVTAPPSYPPTSYSSTQPTSYDQSSYSQQNTYGQPSSYGQQSSYGQQSSYGQQPPTSYPPQTGSYSQAPSQYSQQSSSYGQQSSFRQDHPSSMGVYGQESGGFSGPGENRSMSGPDNRGRGRGGFDRGGMSRGGRGGGRGGMGSAGERGGFNKPGGPMDEGPDLDLGPPVDPDEDSDNSAIYVQGLNDSVTLDDLADFFKQCGVVKMNKRTGQPMIHIYLDKETGKPKGDATVSYEDPPTAKAAVEWFDGKDFQGSKLKVSLARKKPPMNSMRGGLPPREGRGMPPPLRGGPGGPGGPGGPMGRMGGRGGDRGGFPPRGPRGSRGNPSGGGNVQHRAGDWQCPNPGCGNQNFAWRTECNQCKAPKPEGFLPPPFPPPGGDRGRGGPGGMRGGRGGLMDRGGPGGMFRGGRGGDRGGFRGGRGMDRGGFGGGRRGGPGGPPGPLMEQMGGRRGGRGGPGKMDKGEHRQERRDRPY
modifications: left off: large carriers
For the molecule B1, the Number of clones in assay [1] amounted to 1.

B2: endophilin 3: FIT interacting protein isolated from a human brain cDNA library (protein)
chain: MSVAGLKKQFHKASQLFSEKISGAEGTKLDDEFLDMERKIDVTNKVVAEILSKTTEYLQPNPAYRAKLGMLNTVSKIRGQVKTTGYPQTEGLLGDCMLKYGKELGEDSTFGNALIEVGESMKLMAEVKDSLDINVKQTFIDPLQLLQDKDLKEIGHHLKKLEGRRLDYDYKKKRVGKIPDEEVRQAVEKFEESKELAERSMFNFLENDVEQVSQLAVFIEAALDYHRQSTEILQELQSKLQMRISAASSVPRREYKPRPVKRSSSELNGVSTTSVVKTTGSNIPMDQPCCRGLYDFEPENQGELGFKEGDIITLTNQIDENWYEGMIHGESGFFPINYVEVIVPLPQ
modifications: left off: large carriers
Turning to B2, the Number of clones in assay [2] is listed as 2. Further, in assay [1], the Number of clones was 7 and the “strength of interaction with FIT” value was “very strongly”.

B3: α-1 subunit of the AP2 complex: FIT interacting protein isolated from a human brain cDNA library (protein)
chain: MPAVSKGDGMRGLAVFISDIRNCKSKEAEIKRINKELANIRSKFKGDKALDGYSKKKYVCKLLFIFLLGHDIDFGHMEAVNLLSSNKYTEKQIGYLFISVLVNSNSELIRLINNAIKNDLASRNPTFMCLALHCIANVGSREMGEAFAADIPRILVAGDSMDSVKQSAALCLLRLYKASPDLVPMGEWTARVVHLLNDQHMGVVTAAVSLITCLCKKNPDDFKTCVSLAVSRLSRIVSSASTDLQDYTYYFVPAPWLSVKLLRLLQCYPPPEDAAVKGRLVECLETVLNKAQEPPKSKKVQHSNAKNAILFETISLIIHYDSEPNLLVRACNQLGQFLQHRETNLRYLALESMCTLASSEFSHEAVKTHIDTVINALKTERDVSVRQRAADLLYAMCDRSNAKQIVSEMLRYLETADYAIREEIVLKVAILAEKYAVDYSWYVDTILNLIRIAGDYVSEEVWYRVLQIVTNRDDVQGYAAKTVFEALQAPACHENMVKVGGYILGEFGNLIAGDPRSSPPVQFSLLHSKFHLCSVATRALLLSTYIKFINLFPETKATIQGVLRAGSQLRNADVELQQRAVEYLTLSSVASTDVLATVLEEMPPFPERESSILAKLKRKKGPGAGSALDDGRRDPSSNDINGGMEPTPSTVSTPSPSADLLGLRAAPPPAAPPASAGAGNLLVDVFDGPAAQPSLGPTPEEAFLSELEPPAPESPMALLADPAPAADPGPEDIGPPIPEADELLNKFVCKNNGVLFENQLLQIGVKSEFRQNLGRMYLFYGNKTSVQFQNFSPTVVHPGDLQTQLAVQTKRVAAQVDGGAQVQQVLNIECLRDFLTPPLLSVRFRYGGAPQALTLKLPVTINKFFQPTEMAAQDFFQRWKQLSLPQQEAQKIFKANHPMDAEVTKAKLLGFGSALLDNVDPNPENFVGAGIIQTKALQVGCLLRLEPNAQAQMYRLTLRTSKEPVSRHLCELLAQQF
modifications: left off: large carriers
Take B3: in assay [1], the Number of clones is reported as 8 and the “strength of interaction with FIT” value was “slightly lesser strength”.

B4: α-2 subunit of the AP2 complex: FIT interacting protein isolated from a human brain cDNA library (protein)
chain: MPAVSKGDGMRGLAVFISDIRNCKSKEAEIKRINKELANIRSKFKGDKALDGYSKKKYVCKLLFIFLLGHDIDFGHMEAVNLLSSNRYTEKQIGYLFISVLVNSNSELIRLINNAIKNDLASRNPTFMGLALHCIASVGSREMAEAFAGEIPKVLVAGDTMDSVKQSAALCLLRLYRTSPDLVPMGDWTSRVVHLLNDQHLGVVTAATSLITTLAQKNPEEFKTSVSLAVSRLSRIVTSASTDLQDYTYYFVPAPWLSVKLLRLLQCYPPPDPAVRGRLTECLETILNKAQEPPKSKKVQHSNAKNAVLFEAISLIIHHDSEPNLLVRACNQLGQFLQHRETNLRYLALESMCTLASSEFSHEAVKTHIETVINALKTERDVSVRQRAVDLLYAMCDRSNAPQIVAEMLSYLETADYSIREEIVLKVAILAEKYAVDYTWYVDTILNLIRIAGDYVSEEVWYRVIQIVINRDDVQGYAAKTVFEALQAPACHENLVKVGGYILGEFGNLIAGDPRSSPLIQFHLLHSKFHLCSVPTRALLLSTYIKFVNLFPEVKPTIQDVLRSDSQLRNADVELQQRAVEYLRLSTVASTDILATVLEEMPPFPERESSILAKLKKKKGPSTVTDLEDTKRDRSVDVNGGPEPAPASTSAVSTPSPSADLLGLGAAPPAPAGPPPSSGGSGLLVDVFSDSASVVAPLAPGSEDNFARFVCKNNGVLFENQLLQIGLKSEFRQNLGRMFIFYGNKTSTQFLNFTPTLICSDDLQPNLNLQTKPVDPTVEGGAQVQQVVNIECVSDFTEAPVLNIQFRYGGTFQNVSVQLPITLNKFFQPTEMASQDFFQRWKQLSNPQQEVQNIFKAKHPMDTEVTKAKIIGFGSALLEEVDPNPANFVGAGIIHTKTTQIGCLLRLEPNLQAQMYRLTLRTSKEAVSQRLCELLSAQF
modifications: left off: large carriers
Turning to B4, in assay [1], the Number of clones was found to be 1 and the “strength of interaction with FIT” value is recorded as “slightly lesser strength”.
